Experimental data: publication PMC9482650, “Quantitative fragmentomics allow affinity mapping of interactomes” (Nature Communications, 2022)

T1: APBA2_1, Q99767
T1 sequence (Q99767 563-664, limits assumed, looked up): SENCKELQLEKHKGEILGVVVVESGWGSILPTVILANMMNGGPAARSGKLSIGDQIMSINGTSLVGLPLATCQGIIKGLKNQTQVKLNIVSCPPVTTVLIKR

T2: DFNB31_3, Q9P202
T2 sequence (Q9P202 811-907, limits assumed, looked up): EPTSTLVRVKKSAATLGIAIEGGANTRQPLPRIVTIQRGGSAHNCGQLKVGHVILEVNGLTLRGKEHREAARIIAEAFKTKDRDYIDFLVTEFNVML

T3: DLG3_1, Q92796
T3 sequence (Q92796 125-227, limits assumed, looked up): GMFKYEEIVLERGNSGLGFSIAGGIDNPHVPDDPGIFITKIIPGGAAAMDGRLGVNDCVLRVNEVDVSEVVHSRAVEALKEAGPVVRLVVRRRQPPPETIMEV

T4: HTRA3, P83110
T4 sequence (P83110 354-453, limits assumed, looked up): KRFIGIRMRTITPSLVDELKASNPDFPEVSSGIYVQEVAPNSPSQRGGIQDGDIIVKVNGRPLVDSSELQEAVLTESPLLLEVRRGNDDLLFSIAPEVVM

T5: LNX2_2, Q8N448
T5 sequence (Q8N448 334-432, limits assumed, looked up): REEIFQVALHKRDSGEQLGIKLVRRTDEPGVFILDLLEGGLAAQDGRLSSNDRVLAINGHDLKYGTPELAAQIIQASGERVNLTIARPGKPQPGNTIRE

T6: MPDZ_10, O75970
T6 sequence (O75970 1624-1722, limits assumed, looked up): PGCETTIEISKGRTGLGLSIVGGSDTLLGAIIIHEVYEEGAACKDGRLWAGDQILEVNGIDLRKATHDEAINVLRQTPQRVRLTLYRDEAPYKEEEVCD

T7: MPP6, Q9NZW5
T7 sequence (Q9NZW5 125-219, limits assumed, looked up): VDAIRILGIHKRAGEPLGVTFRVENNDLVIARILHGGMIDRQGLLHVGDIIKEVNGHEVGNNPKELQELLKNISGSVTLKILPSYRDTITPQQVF

T8: NHERF3_1, Q5T2W1
T8 sequence (Q5T2W1 4-100, limits assumed, looked up): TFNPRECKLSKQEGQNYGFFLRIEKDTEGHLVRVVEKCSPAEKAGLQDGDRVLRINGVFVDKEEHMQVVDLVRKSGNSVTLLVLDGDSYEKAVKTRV

T9: NHERF3_3, Q5T2W1
T9 sequence (Q5T2W1 238-333, limits assumed, looked up): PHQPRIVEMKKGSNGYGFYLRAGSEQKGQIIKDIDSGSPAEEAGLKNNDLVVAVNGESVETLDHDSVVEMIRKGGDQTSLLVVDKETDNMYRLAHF

T10: RAPGEF6, Q8TEU7
T10 sequence (Q8TEU7 525-625, limits assumed, looked up): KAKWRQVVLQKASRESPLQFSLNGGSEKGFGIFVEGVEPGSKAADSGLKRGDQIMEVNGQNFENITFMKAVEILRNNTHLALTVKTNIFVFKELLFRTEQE

T11: SNTA1, Q13424
T11 sequence (Q13424 82-180, limits assumed, looked up): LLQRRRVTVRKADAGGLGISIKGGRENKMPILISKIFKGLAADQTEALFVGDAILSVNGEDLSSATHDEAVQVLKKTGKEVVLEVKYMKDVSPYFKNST

T12: TJP3_3, O95049
T12 sequence (O95049 375-456, limits assumed, looked up): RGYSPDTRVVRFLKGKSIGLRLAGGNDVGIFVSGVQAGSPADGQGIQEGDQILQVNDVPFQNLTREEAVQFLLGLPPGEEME


Legend:
Experiment in all cases: holdup assay
Parameters in all cases: key: below the threshold = too weak to quantify, mostly under pKd 3.1 to 4
Details in all cases: plain residues with an end cap or a label only (N-terminal biotin on a linker: ado-ado)
[1] = molecular target: AHNAK1, Q09666
Sequence of AHNAK1, Q09666 (Q09666 4-100): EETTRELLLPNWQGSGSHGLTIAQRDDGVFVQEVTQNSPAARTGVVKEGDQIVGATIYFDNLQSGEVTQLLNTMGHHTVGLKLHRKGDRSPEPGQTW

[2] = molecular target: T1, APBA2_1, Q99767
[3] = molecular target: T2, DFNB31_3, Q9P202
[4] = molecular target: DLG1_2, Q12959
Sequence of DLG1_2, Q12959 (Q12959 314-412): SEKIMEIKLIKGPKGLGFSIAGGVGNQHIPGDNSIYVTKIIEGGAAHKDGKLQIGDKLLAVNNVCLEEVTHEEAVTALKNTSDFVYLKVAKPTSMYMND

[5] = molecular target: DLG1_3, Q12959
Sequence of DLG1_3, Q12959 (Q12959 457-571): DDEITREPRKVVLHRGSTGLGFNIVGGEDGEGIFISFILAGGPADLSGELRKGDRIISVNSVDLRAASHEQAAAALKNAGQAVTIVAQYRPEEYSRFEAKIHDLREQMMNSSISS

[6] = molecular target: T3, DLG3_1, Q92796
[7] = molecular target: GORASP1, Q9BQQ3
Sequence of GORASP1, Q9BQQ3 (Q9BQQ3 1-208): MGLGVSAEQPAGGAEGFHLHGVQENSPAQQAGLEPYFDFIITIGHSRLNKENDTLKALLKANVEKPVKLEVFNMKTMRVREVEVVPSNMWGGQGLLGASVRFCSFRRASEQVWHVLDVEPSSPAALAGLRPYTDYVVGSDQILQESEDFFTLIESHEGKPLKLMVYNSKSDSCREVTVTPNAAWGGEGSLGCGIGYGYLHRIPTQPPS

[8] = molecular target: T4, HTRA3, P83110
[9] = molecular target: Inadl_2, Q8NI35
Sequence of Inadl_2, Q8NI35 (Q8NI35 238-335): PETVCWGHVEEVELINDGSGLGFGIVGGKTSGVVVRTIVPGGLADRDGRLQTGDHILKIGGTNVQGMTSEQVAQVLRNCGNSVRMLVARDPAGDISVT

[10] = molecular target: Inadl_9, Q8NI35
Sequence of Inadl_9, Q8NI35 (Q8NI35 1530-1615): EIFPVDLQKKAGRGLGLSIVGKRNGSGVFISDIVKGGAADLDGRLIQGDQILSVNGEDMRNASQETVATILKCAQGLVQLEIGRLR

[11] = molecular target: LDB3, O75112
Sequence of LDB3, O75112 (O75112 1-94): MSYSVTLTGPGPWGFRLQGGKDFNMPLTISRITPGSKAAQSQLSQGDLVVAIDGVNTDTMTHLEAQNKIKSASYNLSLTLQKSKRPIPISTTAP

[12] = molecular target: LNX1_2, Q8TBB1
Sequence of LNX1_2, Q8TBB1 (Q8TBB1 371-470): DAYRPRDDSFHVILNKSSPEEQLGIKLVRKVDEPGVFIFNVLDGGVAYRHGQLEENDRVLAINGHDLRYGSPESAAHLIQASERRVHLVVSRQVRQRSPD

[13] = molecular target: T5, LNX2_2, Q8N448
[14] = molecular target: MAGI1_2, Q96QZ7
Sequence of MAGI1_2, Q96QZ7 (Q96QZ7 456-580): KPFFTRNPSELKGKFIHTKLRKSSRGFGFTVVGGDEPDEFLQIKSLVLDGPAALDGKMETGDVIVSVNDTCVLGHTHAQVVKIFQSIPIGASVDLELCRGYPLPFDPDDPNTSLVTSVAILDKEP

[15] = molecular target: T6, MPDZ_10, O75970
[16] = molecular target: T7, MPP6, Q9NZW5
[17] = molecular target: T8, NHERF3_1, Q5T2W1
[18] = molecular target: T9, NHERF3_3, Q5T2W1
[19] = molecular target: NHERF4_1, Q86UT5-2
Sequence of NHERF4_1, Q86UT5-2 (Q86UT5 other isoform, or with tags, fused parts or gaps): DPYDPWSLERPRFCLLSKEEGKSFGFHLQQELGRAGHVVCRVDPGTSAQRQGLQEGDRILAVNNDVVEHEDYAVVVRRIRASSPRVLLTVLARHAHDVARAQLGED

[20] = molecular target: NOS1, P29475
Sequence of NOS1, P29475 (P29475 9-101): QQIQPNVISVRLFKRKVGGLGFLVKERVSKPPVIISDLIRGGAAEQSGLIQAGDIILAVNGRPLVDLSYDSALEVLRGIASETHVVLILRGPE

[21] = molecular target: PDLIM1, O00151
Sequence of PDLIM1, O00151 (O00151 1-87): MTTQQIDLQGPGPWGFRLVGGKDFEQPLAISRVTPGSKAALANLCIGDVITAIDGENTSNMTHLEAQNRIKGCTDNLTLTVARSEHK

[22] = molecular target: PICK1, Q9NRD5
Sequence of PICK1, Q9NRD5 (Q9NRD5 17-115): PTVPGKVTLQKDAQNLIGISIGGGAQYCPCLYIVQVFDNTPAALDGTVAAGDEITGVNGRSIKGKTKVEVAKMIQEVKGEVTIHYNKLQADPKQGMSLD

[23] = molecular target: T10, RAPGEF6, Q8TEU7
[24] = molecular target: SCRIB_3, Q14160
Sequence of SCRIB_3, Q14160 (Q14160 999-1103): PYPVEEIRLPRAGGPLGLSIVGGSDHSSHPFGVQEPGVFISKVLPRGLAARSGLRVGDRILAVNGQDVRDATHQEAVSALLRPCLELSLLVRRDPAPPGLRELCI

[25] = molecular target: T11, SNTA1, Q13424
[26] = molecular target: T12, TJP3_3, O95049

Row | pKd [1] | pKd [2] | pKd [3] | pKd [4] | pKd [5] | pKd [6] | pKd [7] | pKd [8] | pKd [9] | pKd [10] | pKd [11] | pKd [12] | pKd [13] | pKd [14] | pKd [15] | pKd [16] | pKd [17] | pKd [18] | pKd [19] | pKd [20] | Binder | other results
1 | below the threshold | below the threshold | below the threshold | 4.45 | below the threshold | 3.88 | 3.75 | 4.49 | below the threshold | 3.96 | below the threshold | below the threshold | 4.13 | below the threshold | below the threshold | below the threshold | 5.08 | below the threshold | 3.59 | 3.53 | APIAGFSSFV [SDK2, Q58EX2] | pKd [21]: below the threshold; pKd [22]: below the threshold; pKd [23]: below the threshold; pKd [24]: 4.06; pKd [25]: 4.09; pKd [26]: 3.82
2 | below the threshold | below the threshold | below the threshold | below the threshold | below the threshold | below the threshold | below the threshold | below the threshold | below the threshold | below the threshold | below the threshold | below the threshold | below the threshold | below the threshold | below the threshold | below the threshold | below the threshold | below the threshold | below the threshold | below the threshold | LAHVKHKEQI [AQP3, Q92482] | pKd [21]: below the threshold; pKd [22]: 3.98; pKd [23]: below the threshold; pKd [24]: below the threshold; pKd [25]: below the threshold; pKd [26]: below the threshold
